Source: patent US20160114000A1 (Merck Sharp & Dohme, published 2016)
*1 amine or outer side, *2 acyl side, *3 side chain or, on linkers, in order; H or OH if unused. Where a SMILES comes first, the peptide text is derived from it. Where no end group is shown, it is not given here. Side-chain parts run from the residue outwards. [ ]: non-standard residue; d: D form. The star is where a group is joined. γGlu = O=C(O)[C@H](CCC(=O)[*:2])N[*:1]; Palmitoyl = CCCCCCCCCCCCCCCC(=O)*; Nle = CCCC[C@H](N)C(=O)O; Aib = CC(C)(N)C(=O)O

Experiments:
human GCGR = target: T1, human GCGR (Homo sapiens, UniProt P47871); test: cAMP protocol, cells expressing human GCGR; type: cell-based; details: ratio of EC50 at human GCGR to EC50 at human GLP1R
T1 construct: expressed in transfected cells; grown under Geneticin and Hygromycin selection
T1 sequence (P47871 26-477): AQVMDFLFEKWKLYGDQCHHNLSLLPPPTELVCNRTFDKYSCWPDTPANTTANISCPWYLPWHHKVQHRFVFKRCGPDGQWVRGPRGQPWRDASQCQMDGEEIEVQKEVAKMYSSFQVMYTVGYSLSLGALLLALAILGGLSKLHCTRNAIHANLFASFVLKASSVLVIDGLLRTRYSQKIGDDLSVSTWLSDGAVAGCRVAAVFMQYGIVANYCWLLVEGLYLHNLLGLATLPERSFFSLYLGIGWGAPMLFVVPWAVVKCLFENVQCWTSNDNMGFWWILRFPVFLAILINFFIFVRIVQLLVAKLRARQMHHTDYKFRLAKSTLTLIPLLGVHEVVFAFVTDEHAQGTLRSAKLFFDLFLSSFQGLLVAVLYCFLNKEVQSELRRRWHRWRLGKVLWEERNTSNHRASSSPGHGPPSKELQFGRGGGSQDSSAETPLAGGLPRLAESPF
Procedure: The cAMP protocol was as follows.
Peptides were dissolved in 100% DMSO and serially diluted to generate 11 point titrations. The peptide solutions were then transferred into 384-well assay plates (150 nL/well). Assay ready frozen cells expressing human GLP-1R or human GCGR were suspended in growth media consisting of DMEM/F12 medium (GIBCO), 10% FBS (GIBCO), lx P/S (GIBCO), 800 μg/mL Geneticin (GIBCO), and 300 μg/mL Hygromycin (Invitrogen). Cells were then diluted in assay buffer consisting of PBS (GIBCO), 7.5% BSA (Perkin Elmer), 100 μM RO 20-1724 (Sigma), and 20% human serum (MP Biomedical). The cell suspensions (15 μL) were then added to the assay plates containing the peptide solutions (30,000 cells/well for human GCGR; 20,000 cells/well for GLP1R). The cells were incubated for 1 hour at room temperature in the dark. Production of cAMP was determined using HitHunter™ cAMPXS kits (DiscoverX). ED buffer (20 μL) was then added to each well and the plates were incubated for 1 hour at room temperature in the dark. Subsequently, EA buffer (20 μL) was added to each well, and the plates were incubated for 1-18 hours at room temperature in the dark. Luminescence was measured using an EnVision Multilabel plate reader (Perkin Elmer). EC50 values were calculated using ADA data analyzer software.

human glucagon receptor = human glucagon receptor (human, UniProt P47871 26-477); test: cell-based or functional assay
human glucagon receptor, sequence (P47871 26-477): as above

human GLP-1 receptor = human GLP-1 receptor (human, UniProt P43220 24-463); test: cell-based or functional assay

Row | Molecule | hGCGR/hGLP1R (hTone) (human GCGR) | hGCGR/hGLP1R (hTone): ratio of cAMP EC50 at human GCGR to cAMP EC50 at human GLP1R (human glucagon receptor) [ratio] | GLPR1 EC50 (nM) human; cAMP production (HitHunter cAMPXS), 20% human serum (human GLP-1 receptor) [nM] | GCGR EC50 (nM) human; cAMP production (HitHunter cAMPXS), 20% human serum (human glucagon receptor) [nM]
1 | CCCCCCCCCCCCCCCC(=O)N[C@@H](CCC(=O)N[C@@H](CCC(=O)NCCCC[C@H](NC(=O)[C@H](CC(=O)O)NC(=O)[C@H](CO)NC(=O)[C@@H](NC(=O)[C@H](Cc1ccccc1)NC(=O)[C@@H](NC(=O)CNC(=O)[C@H](CCC(N)=O)NC(=O)[C@@H](CO)NC(=O)[C@@H](N)Cc1c[nH]cn1)[C@@H](C)O)[C@@H](C)O)C(=O)N[C@@H](CO)C(=O)N[C@@H](CCCCN)C(=O)N[C@@H](Cc1ccc(O)cc1)C(=O)N[C@@H](CC(C)C)C(=O)N[C@@H](CCC(=O)O)C(=O)N[C@@H](C)C(=O)N[C@@H](CCCNC(=N)N)C(=O)N[C@@H](C)C(=O)N[C@@H](C)C(=O)N[C@@H](CCC(N)=O)C(=O)N[C@@H](CC(=O)O)C(=O)N[C@@H](Cc1ccccc1)C(=O)N[C@H](C(=O)N[C@@H](CCC(N)=O)C(=O)N[C@@H](Cc1c[nH]c2ccccc12)C(=O)N[C@@H](CC(C)C)C(=O)N[C@@H](CC(C)C)C(=O)N[C@@H](CC(=O)O)C(=O)N[C@H](C(N)=O)[C@@H](C)O)C(C)C)C(=O)O)C(=O)O [SEQ ID NO: 13] | 0.90 | – | – | –
2 | CCCCCCCCCCCCCCCC(=O)N[C@@H](CCC(=O)N[C@@H](CCC(=O)NCCCC[C@H](NC(=O)[C@H](CC(=O)O)NC(=O)[C@H](CO)NC(=O)[C@@H](NC(=O)[C@H](Cc1ccccc1)NC(=O)[C@@H](NC(=O)CNC(=O)[C@H](CCC(N)=O)NC(=O)[C@@H](CO)NC(=O)[C@@H](N)Cc1c[nH]cn1)[C@@H](C)O)[C@@H](C)O)C(=O)N[C@@H](CO)C(=O)N[C@@H](CC(C)C)C(=O)N[C@@H](Cc1ccc(O)cc1)C(=O)N[C@@H](CC(C)C)C(=O)N[C@@H](CC(=O)O)C(=O)N[C@@H](CCC(=O)O)C(=O)N[C@@H](CCCNC(=N)N)C(=O)N[C@@H](C)C(=O)N[C@@H](C)C(=O)N[C@@H](CCC(N)=O)C(=O)N[C@@H](CC(=O)O)C(=O)N[C@@H](Cc1ccccc1)C(=O)N[C@H](C(=O)N[C@@H](CCC(N)=O)C(=O)N[C@@H](Cc1c[nH]c2ccccc12)C(=O)N[C@@H](CC(C)C)C(=O)N[C@@H](CC(C)C)C(=O)N[C@@H](CC(=O)O)C(=O)N[C@H](C(N)=O)[C@@H](C)O)C(C)C)C(=O)O)C(=O)O [SEQ ID NO: 16] (H-H[dS]QGTFTSDK([γGlu-γGlu-Palmitoyl])SLYLDERAAQDFVQWLLDT-NH2) | 0.91 | – | – | –
3 | CCCCCCCCCCCCCCCC(=O)N[C@@H](CCC(=O)N[C@@H](CCC(=O)NCCCC[C@H](NC(=O)[C@H](CC(=O)O)NC(=O)[C@H](CO)NC(=O)[C@@H](NC(=O)[C@H](Cc1ccccc1)NC(=O)[C@@H](NC(=O)CNC(=O)[C@H](CCC(N)=O)NC(=O)C1(NC(=O)[C@@H](N)Cc2c[nH]cn2)CCC1)[C@@H](C)O)[C@@H](C)O)C(=O)N[C@@H](CO)C(=O)N[C@@H](CCCCN)C(=O)N[C@@H](Cc1ccc(O)cc1)C(=O)N[C@@H](CC(C)C)C(=O)N[C@@H](CC(=O)O)C(=O)N[C@@H](CCC(=O)O)C(=O)N[C@@H](CCCNC(=N)N)C(=O)N[C@@H](C)C(=O)N[C@@H](C)C(=O)N[C@@H](CCC(N)=O)C(=O)N[C@@H](CC(=O)O)C(=O)N[C@@H](Cc1ccccc1)C(=O)N[C@H](C(=O)N[C@@H](CCC(N)=O)C(=O)N[C@@H](Cc1c[nH]c2ccccc12)C(=O)N[C@@H](CC(C)C)C(=O)N[C@@H](CC(C)C)C(=O)N[C@@H](CC(=O)O)C(=O)N[C@H](C(N)=O)[C@@H](C)O)C(C)C)C(=O)O)C(=O)O [SEQ ID NO: 18] | 1.25 | – | – | –
4 | Ac-HAQGTFTSDK([γGlu-γGlu-Palmitoyl])SKYLDERAAQDFVQWLLDT-NH2 (SMILES CCCCCCCCCCCCCCCC(=O)N[C@@H](CCC(=O)N[C@@H](CCC(=O)NCCCC[C@H](NC(=O)[C@H](CC(=O)O)NC(=O)[C@H](CO)NC(=O)[C@@H](NC(=O)[C@H](Cc1ccccc1)NC(=O)[C@@H](NC(=O)CNC(=O)[C@H](CCC(N)=O)NC(=O)[C@H](C)NC(=O)[C@H](Cc1c[nH]cn1)NC(C)=O)[C@@H](C)O)[C@@H](C)O)C(=O)N[C@@H](CO)C(=O)N[C@@H](CCCCN)C(=O)N[C@@H](Cc1ccc(O)cc1)C(=O)N[C@@H](CC(C)C)C(=O)N[C@@H](CC(=O)O)C(=O)N[C@@H](CCC(=O)O)C(=O)N[C@@H](CCCNC(=N)N)C(=O)N[C@@H](C)C(=O)N[C@@H](C)C(=O)N[C@@H](CCC(N)=O)C(=O)N[C@@H](CC(=O)O)C(=O)N[C@@H](Cc1ccccc1)C(=O)N[C@H](C(=O)N[C@@H](CCC(N)=O)C(=O)N[C@@H](Cc1c[nH]c2ccccc12)C(=O)N[C@@H](CC(C)C)C(=O)N[C@@H](CC(C)C)C(=O)N[C@@H](CC(=O)O)C(=O)N[C@H](C(N)=O)[C@@H](C)O)C(C)C)C(=O)O)C(=O)O) [Co-agonist Peptide 7] | – | 1 | – | –
5 | H[dS]QGTFTSDK([γGlu-γGlu-Palmitoyl])SKYLDARAAQDFVQWLLDT-NH2 (N-terminus assumed; SMILES CCCCCCCCCCCCCCCC(=O)N[C@@H](CCC(=O)N[C@@H](CCC(=O)NCCCC[C@H](NC(=O)[C@H](CC(=O)O)NC(=O)[C@H](CO)NC(=O)[C@@H](NC(=O)[C@H](Cc1ccccc1)NC(=O)[C@@H](NC(=O)CNC(=O)[C@H](CCC(N)=O)NC(=O)[C@@H](CO)NC(=O)[C@@H](N)Cc1c[nH]cn1)[C@@H](C)O)[C@@H](C)O)C(=O)N[C@@H](CO)C(=O)N[C@@H](CCCCN)C(=O)N[C@@H](Cc1ccc(O)cc1)C(=O)N[C@@H](CC(C)C)C(=O)N[C@@H](CC(=O)O)C(=O)N[C@@H](C)C(=O)N[C@@H](CCCNC(=N)N)C(=O)N[C@@H](C)C(=O)N[C@@H](C)C(=O)N[C@@H](CCC(N)=O)C(=O)N[C@@H](CC(=O)O)C(=O)N[C@@H](Cc1ccccc1)C(=O)N[C@H](C(=O)N[C@@H](CCC(N)=O)C(=O)N[C@@H](Cc1c[nH]c2ccccc12)C(=O)N[C@@H](CC(C)C)C(=O)N[C@@H](CC(C)C)C(=O)N[C@@H](CC(=O)O)C(=O)N[C@H](C(N)=O)[C@@H](C)O)C(C)C)C(=O)O)C(=O)O) [Co-agonist Peptide 5] | – | 0.9 | 0.033 | 0.03
6 | HXQGTFTSDKSKYLDERAAQDFVQWLLDT (D-Ser at 2; Lys 10 conjugated to γEγE-C16 (palmitoyl); C-terminal amide) [Comparator Co-agonist Peptide 6] | – | 1.3 | 0.007 | 0.009
7 | H[Aib]VGTFTSDK([γGlu-γGlu-Palmitoyl])SKYLD[Aib]RAAQDFVQWL[Nle]DT-NH2 (N-terminus assumed; SMILES CCCCCCCCCCCCCCCC(=O)N[C@@H](CCC(=O)N[C@@H](CCC(=O)NCCCC[C@H](NC(=O)[C@H](CC(=O)O)NC(=O)[C@H](CO)NC(=O)[C@@H](NC(=O)[C@H](Cc1ccccc1)NC(=O)[C@@H](NC(=O)CNC(=O)[C@@H](NC(=O)C(C)(C)NC(=O)[C@@H](N)Cc1c[nH]cn1)C(C)C)[C@@H](C)O)[C@@H](C)O)C(=O)N[C@@H](CO)C(=O)N[C@@H](CCCCN)C(=O)N[C@@H](Cc1ccc(O)cc1)C(=O)N[C@@H](CC(C)C)C(=O)N[C@@H](CC(=O)O)C(=O)NC(C)(C)C(=O)N[C@@H](CCCNC(=N)N)C(=O)N[C@@H](C)C(=O)N[C@@H](C)C(=O)N[C@@H](CCC(N)=O)C(=O)N[C@@H](CC(=O)O)C(=O)N[C@@H](Cc1ccccc1)C(=O)N[C@H](C(=O)N[C@@H](CCC(N)=O)C(=O)N[C@@H](Cc1c[nH]c2ccccc12)C(=O)N[C@@H](CC(C)C)C(=O)N[C@@H](CCCC)C(=O)N[C@@H](CC(=O)O)C(=O)N[C@H](C(N)=O)[C@@H](C)O)C(C)C)C(=O)O)C(=O)O) [Co-agonist Peptide 4] | – | 8.98 | – | –
8 | H[dS]QGTFTSDK([γGlu-Palmitoyl])SKYLDARAAQDFVQWLLDT-NH2 (N-terminus assumed; SMILES CCCCCCCCCCCCCCCC(=O)N[C@@H](CCC(=O)NCCCC[C@H](NC(=O)[C@H](CC(=O)O)NC(=O)[C@H](CO)NC(=O)[C@@H](NC(=O)[C@H](Cc1ccccc1)NC(=O)[C@@H](NC(=O)CNC(=O)[C@H](CCC(N)=O)NC(=O)[C@@H](CO)NC(=O)[C@@H](N)Cc1c[nH]cn1)[C@@H](C)O)[C@@H](C)O)C(=O)N[C@@H](CO)C(=O)N[C@@H](CCCCN)C(=O)N[C@@H](Cc1ccc(O)cc1)C(=O)N[C@@H](CC(C)C)C(=O)N[C@@H](CC(=O)O)C(=O)N[C@@H](C)C(=O)N[C@@H](CCCNC(=N)N)C(=O)N[C@@H](C)C(=O)N[C@@H](C)C(=O)N[C@@H](CCC(N)=O)C(=O)N[C@@H](CC(=O)O)C(=O)N[C@@H](Cc1ccccc1)C(=O)N[C@H](C(=O)N[C@@H](CCC(N)=O)C(=O)N[C@@H](Cc1c[nH]c2ccccc12)C(=O)N[C@@H](CC(C)C)C(=O)N[C@@H](CC(C)C)C(=O)N[C@@H](CC(=O)O)C(=O)N[C@H](C(N)=O)[C@@H](C)O)C(C)C)C(=O)O) [Co-agonist Peptide 1] | – | 0.88 | 0.048 | 0.042
9 | H[dS]QGTFTSDK([γGlu-γGlu-Palmitoyl])SKYLDVRRAQDFVQWLLDT-NH2 (not fully specified; printed as HsQGTFTSDK(γEγEC16)SKYLDVRRAQDFVQWLLDT-NH2) [Co-agonist Peptide 2] | – | 0.3 | – | –
10 | HXQGTXTSDKSKYLDERAAQDFVQWLLDT (D-Ser at 2; threo-β-phenylserine (tβP) at 6; Lys 10 conjugated to γEγE-C16 (palmitoyl); C-terminal amide) [Co-agonist Peptide 14] | – | 1.02 | – | –
